Laboratory results taken from the RNAGym collection of RNA variant scans (doi:10.1093/molbev/msab373).

B1: Azoarcus group I ribozyme (parent)
chain: GUGCCUUGCGCCGGGAAACCACGCAAGGGAUGGUGUCAAAUUCGGCGAAACCUAAGCGCCCGCCCGGGCGUAUGGCAACGCCGAGCCAAGCUUCGGCGCCUGCGCCGAUGAAGGUGUAGAGACUAGACGGCACCCACCUAAGGCAAACGCUAUGGUGAAGGCAUAGUCCAGGGAGUGGCGAAAGUCACACAAACCGG

Variants of: B1
Assay: reverse-splicing fitness (ratio to wild type); higher = more active; in vitro selection; Mg2+ level not given
Summary of the method: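 An in vitro group I ribozyme library with randomized positions was T7-transcribed and gel-purified. In triplicate, 10 pmol RNA in EPPS pH 7.5 was reacted with 50 pmoles of a 30-nt RNA substrate for 1 h at 37 °C across several added MgCl2 levels (1–48 mM), then stopped with EDTA. Products were reverse transcribed from a substrate-complementary primer, PCR-amplified and sequenced (HiSeq 4000). Fitness is a variant's read proportion after selection over that before, normalised to wild type.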
Work on GUGCCUUGCGCCGGGAAACCACGCAAGGGAUGGUGUCAAAUUCGGCGAAACCUAAGCGCCCGCCCGGGCGUAUGGCAACGCUGAGCCAAGCUUCGGCGCCUGCGCCGAUGAAGGUGUAGUGACUAGACGGCACCCACCUAAGGCCAACGGUAUGGUGAAGGCAUAGUCGAGGGAGAGGCGAAAGUCACACAAACCGG [C82U A120U A145C C150G C169G U176A] yielded a reverse-splicing fitness of 0.00206.
Variant GUGCCUUGCGCCGGGAAACCACGCAAGGGAUGGUGUCAAAUUCGGCGAAACCUAAGCGCCCGCCCGGGCGUAUGGCAACGCUGAGCCAAGCUUCGGCGCCUGCGCCGAUGAAGGUGUAGUGACUAGACGGCACCCACCUAAGGCCAACGGUAUGGUGAAGGCAUAGUCGAGGGAGCGGCGAAAGUCACACAAACCGG [C82U A120U A145C C150G C169G U176C] has a reverse-splicing fitness of 0.0019.
GUGCCUUGCGCCGGGAAACCACGCAAGGGAUGGUGUCAAAUUCGGCGAAACCUAAGCGCCCGCCCGGGCGUAUGGCAACGCUGAGCCAAGCUUCGGCGCCUGCGCCGAUGAAGGUGUAGUGACUAGACGGCACCCACCUAAGGCCAACGUUAUGGUGAAGGCAUAGUCAAGGGAGUGGCGAAAGUCACACAAACCGG [C82U A120U A145C C150U C169A] showed a reverse-splicing fitness of 0.00167.
GUGCCUUGCGCCGGGAAACCACGCAAGGGAUGGUGUCAAAUUCGGCGAAACCUAAGCGCCCGCCCGGGCGUAUGGCAACGCUGAGCCAAGCUUCGGCGCCUGCGCCGAUGAAGGUGUAGUGACUAGACGGCACCCACCUAAGGCCAACGUUAUGGUGAAGGCAUAGUCUAGGGAGUGGCGAAAGUCACACAAACCGG [C82U A120U A145C C150U C169U] showed a reverse-splicing fitness of 0.00331.
GUGCCUUGCGCCGGGAAACCACGCAAGGGAUGGUGUCAAAUUCGGCGAAACCUAAGCGCCCGCCCGGGCGUAUGGCAACGCUGAGCCAAGCUUCGGCGCCUGCGCCGAUGAAGGUGUAGUGACUAGACGGCACCCACCUAAGGCCAACGUUAUGGUGAAGGCAUAGUCGAGGGAGUGGCGAAAGUCACACAAACCGG [C82U A120U A145C C150U C169G] gave a reverse-splicing fitness of 0.00257.
GUGCCUUGCGCCGGGAAACCACGCAAGGGAUGGUGUCAAAUUCGGCGAAACCUAAGCGCCCGCCCGGGCGUAUGGCAACGCUGAGCCAAGCUUCGGCGCCUGCGCCGAUGAAGGUGUAGUGACUAGACGGCACCCACCUAAGGCCAACGUUAUGGUGAAGGCAUAGUCGAGGGAGAGGCGAAAGUCACACAAACCGG [C82U A120U A145C C150U C169G U176A] gave a reverse-splicing fitness of 0.00259.
GUGCCUUGCGCCGGGAAACCACGCAAGGGAUGGUGUCAAAUUCGGCGAAACCUAAGCGCCCGCCCGGGCGUAUGGCAACGCUGAGCCAAGCUUCGGCGCCUGCGCCGAUGAAGGUGUAGUGACUAGACGGCACCCACCUAAGGCCAACGUUAUGGUGAAGGCAUAGUCGAGGGAGCGGCGAAAGUCACACAAACCGG [C82U A120U A145C C150U C169G U176C] gave a reverse-splicing fitness of 0.00188.
Variant GUGCCUUGCGCCGGGAAACCACGCAAGGGAUGGUGUCAAAUUCGGCGAAACCUAAGCGCCCGCCCGGGCGUAUGGCAACGCUGAGCCAAGCUUCGGCGCCUGCGCCGAUGAAGGUGUAGUGACUAGACGGCACCCACCUAAGGCCAACGUUAUGGUGAAGGCAUAGUCGAGGGAGGGGCGAAAGUCACACAAACCGG [C82U A120U A145C C150U C169G U176G] has a reverse-splicing fitness of 0.00153.
In the case of GUGCCUUGCGCCGGGAAACCACGCAAGGGAUGGUGUCAAAUUCGGCGAAACCUAAGCGCCCGCCCGGGCGUAUGGCAACGCUGAGCCAAGCUUCGGCGCCUGCGCCGAUGAAGGUGUAGUGACUAGACGGCACCCACCUAAGGCCAACGUUAUGGUGAAGGCAUAGUCCAGGGAGUGGCGAAAGUCACACAAACCGG [C82U A120U A145C C150U], the reverse-splicing fitness is reported as 0.0391.
With GUGCCUUGCGCCGGGAAACCACGCAAGGGAUGGUGUCAAAUUCGGCGAAACCUAAGCGCCCGCCCGGGCGUAUGGCAACGCUGAGCCAAGCUUCGGCGCCUGCGCCGAUGAAGGUGUAGUGACUAGACGGCACCCACCUAAGGCCAACGGUAUGGUGAAGGCAUAGUCUAGGGAGUGGCGAAAGUCACACAAACCGG [C82U A120U A145C C150G C169U] the reverse-splicing fitness was 0.00275.
Variant GUGCCUUGCGCCGGGAAACCACGCAAGGGAUGGUGUCAAAUUCGGCGAAACCUAAGCGCCCGCCCGGGCGUAUGGCAACGCUGAGCCAAGCUUCGGCGCCUGCGCCGAUGAAGGUGUAGUGACUAGACGGCACCCACCUAAGGCCAACGGUAUGGUGAAGGCAUAGUCAAGGGAGUGGCGAAAGUCACACAAACCGG [C82U A120U A145C C150G C169A] has a reverse-splicing fitness of 0.00211.
GUGCCUUGCGCCGGGAAACCACGCAAGGGAUGGUGUCAAAUUCGGCGAAACCUAAGCGCCCGCCCGGGCGUAUGGCAACGCUGAGCCAAGCUUCGGCGCCUGCGCCGAUGAAGGUGUAGUGACUAGACGGCACCCACCUAAGGCCAACGGUAUGGUGAAGGCAUAGUCGAGGGAGUGGCGAAAGUCACACAAACCGG [C82U A120U A145C C150G C169G] gave a reverse-splicing fitness of 0.00257.
In the case of GUGCCUUGCGCCGGGAAACCACGCAAGGGAUGGUGUCAAAUUCGGCGAAACCUAAGCGCCCGCCCGGGCGUAUGGCAACGCUGAGCCAAGCUUCGGCGCCUGCGCCGAUGAAGGUGUAGUGACUAGACGGCACCCACCUAAGGCCAACGGUAUGGUGAAGGCAUAGUCUAGGGAGCGGCGAAAGUCACACAAACCGG [C82U A120U A145C C150G C169U U176C], the reverse-splicing fitness is reported as 0.00224.
GUGCCUUGCGCCGGGAAACCACGCAAGGGAUGGUGUCAAAUUCGGCGAAACCUAAGCGCCCGCCCGGGCGUAUGGCAACGCUGAGCCAAGCUUCGGCGCCUGCGCCGAUGAAGGUGUAGUGACUAGACGGCACCCACCUAAGGCCAACGGUAUGGUGAAGGCAUAGUCUAGGGAGAGGCGAAAGUCACACAAACCGG [C82U A120U A145C C150G C169U U176A] gave a reverse-splicing fitness of 0.00247.
GUGCCUUGCGCCGGGAAACCACGCAAGGGAUGGUGUCAAAUUCGGCGAAACCUAAGCGCCCGCCCGGGCGUAUGGCAACGCUGAGCCAAGCUUCGGCGCCUGCGCCGAUGAAGGUGUAGUGACUAGACGGCACCCACCUAAGGCCAACGGUAUGGUGAAGGCAUAGUCUAGGGAGGGGCGAAAGUCACACAAACCGG [C82U A120U A145C C150G C169U U176G] showed a reverse-splicing fitness of 0.00191.
